Experiments:
Aβ11-29 = biological target: T1, Aβ11-29
T1 sequence (peptide): EVHHQKLVFFAEDVGSNKG

Chain of Aβ1-20 (peptide, as listed by the source): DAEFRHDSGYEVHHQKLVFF

- hydrolysis activity: remaining HPLC peak of the substrate (Aβ1-20): 49.6%
- hydrolysis activity: remaining HPLC peak of the substrate (Aβ11-29): 72%
Binder: SKGQA [ANA-SA5]

— patent US20190023741A1
